Data set [1] has as its target RhoA, produced as GST-fusion protein in E. coli BL21 [GST: P08515].
For data set [2], the target named is Rac1, produced as GST-fusion protein in E. coli BL21 [GST: P08515].
In data set [3] the target is cdc42, produced as GST-fusion protein in E. coli BL21 [GST: P08515].

This note sets out measurements from US20090307790.

B1: catalytic domain of wild type Tagap1, produced as GST-fusion protein in E. coli BL21 (protein)
chain: QPLSIICGENDTLPRPIQDILTILCLKGPSTEGIFRKAASEKARKELKEGLNCGVSVNLKQLPVHLLAVVFKDFLRGIPLKLLSCDLFEDWMGALEKPTEEDRIEALKQVAGGLPRPNLLLLRHLLYVLHLISKNAEVNKMDSSNLAICIGPNMLTLKNDQSLSFQAQKDLNNKVKILVEFLIDNCFEIF
Regarding B1, in data set [1], the “GTPase activity of RhoA (GAP-activity assay, FIG. 2e)” value is on record as “Tagap1 enhances the GTPase activity of RhoA” and the “GTPase activity of RhoA (in vitro GAP assay)” value was “the GTPase activity of RhoA was strongly enhanced by the GAP domain of Tagap1”. The “GTPase activity of Rac1 (in vitro GAP assay)” value in data set [2] was “hardly (Rac1) stimulated”. The “GTPase activity of Cdc42 (in vitro GAP assay)” value in data set [3] was “only mildly (Cdc42) ... stimulated”.
